A value given as a limit tells only on which side of the number the result lay.

The target of one assay is T1, CD206 (Homo sapiens, UniProt P22897).
T1 sequence (P22897 19-1456): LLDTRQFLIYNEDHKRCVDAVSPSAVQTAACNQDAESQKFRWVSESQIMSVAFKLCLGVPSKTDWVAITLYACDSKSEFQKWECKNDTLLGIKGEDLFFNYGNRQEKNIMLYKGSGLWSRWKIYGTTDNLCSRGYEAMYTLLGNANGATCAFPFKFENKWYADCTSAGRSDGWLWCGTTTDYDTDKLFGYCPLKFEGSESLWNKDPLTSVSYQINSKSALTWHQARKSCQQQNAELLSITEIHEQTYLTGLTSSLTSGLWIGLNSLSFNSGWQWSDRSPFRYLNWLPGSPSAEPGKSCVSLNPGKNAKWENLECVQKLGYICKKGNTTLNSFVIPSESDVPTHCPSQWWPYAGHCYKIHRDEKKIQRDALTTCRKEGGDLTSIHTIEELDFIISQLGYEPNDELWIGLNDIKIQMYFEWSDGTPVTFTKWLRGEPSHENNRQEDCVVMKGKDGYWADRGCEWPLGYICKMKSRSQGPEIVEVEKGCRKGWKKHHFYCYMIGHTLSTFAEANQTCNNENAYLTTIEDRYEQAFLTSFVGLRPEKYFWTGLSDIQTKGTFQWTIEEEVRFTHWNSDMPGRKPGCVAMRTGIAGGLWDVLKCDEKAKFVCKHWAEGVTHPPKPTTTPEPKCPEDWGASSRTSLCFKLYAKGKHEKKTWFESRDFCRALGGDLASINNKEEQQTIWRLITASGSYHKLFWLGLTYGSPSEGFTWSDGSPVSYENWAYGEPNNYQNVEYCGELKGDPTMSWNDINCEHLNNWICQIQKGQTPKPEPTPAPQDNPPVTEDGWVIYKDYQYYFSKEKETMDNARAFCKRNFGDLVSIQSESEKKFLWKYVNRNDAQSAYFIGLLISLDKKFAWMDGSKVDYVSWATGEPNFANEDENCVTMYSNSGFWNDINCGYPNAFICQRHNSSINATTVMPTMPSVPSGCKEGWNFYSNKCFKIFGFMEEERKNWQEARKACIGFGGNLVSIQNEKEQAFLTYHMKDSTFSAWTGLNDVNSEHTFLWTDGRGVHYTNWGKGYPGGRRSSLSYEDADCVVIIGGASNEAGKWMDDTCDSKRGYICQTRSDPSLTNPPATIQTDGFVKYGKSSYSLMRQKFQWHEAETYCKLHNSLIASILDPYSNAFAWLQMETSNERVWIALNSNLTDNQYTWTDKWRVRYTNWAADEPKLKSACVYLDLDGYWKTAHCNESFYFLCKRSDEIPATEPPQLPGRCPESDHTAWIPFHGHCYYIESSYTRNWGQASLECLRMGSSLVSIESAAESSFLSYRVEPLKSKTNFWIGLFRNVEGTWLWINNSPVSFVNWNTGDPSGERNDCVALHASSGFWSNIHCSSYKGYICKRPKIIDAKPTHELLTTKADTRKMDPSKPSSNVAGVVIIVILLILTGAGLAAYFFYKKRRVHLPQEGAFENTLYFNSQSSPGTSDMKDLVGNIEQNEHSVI
The conditions noted are these: xenotransplanted tumors; ref [39]–[41]; cited from earlier work.

In assay [1] the target is mannose receptor CD206, human, recombinant (human) (UniProt P22897). The assay can be described thus: MST.
The next assay has as its target murine CD206 (murine) (UniProt Q61830). As to the kind of experiment: MST.
Assay [2] addresses endogenous CD206 in human M2-polarized macrophages (human (endogenous in M2-polarized macrophages)) (UniProt P22897). The assay can be described thus: cellular thermal shift assay.
The target of assay [3] is endogenous CD206 in murine M2-polarized macrophages (BMDMs) (mouse (endogenous in M2 BMDMs)) (UniProt Q61830). The assay can be described thus: cellular thermal shift assay.
endogenous CD206 in murine M2-polarized macrophages (BMDMs) (mouse (endogenous in M2 BMDMs)), sequence (Q61830 20-1456): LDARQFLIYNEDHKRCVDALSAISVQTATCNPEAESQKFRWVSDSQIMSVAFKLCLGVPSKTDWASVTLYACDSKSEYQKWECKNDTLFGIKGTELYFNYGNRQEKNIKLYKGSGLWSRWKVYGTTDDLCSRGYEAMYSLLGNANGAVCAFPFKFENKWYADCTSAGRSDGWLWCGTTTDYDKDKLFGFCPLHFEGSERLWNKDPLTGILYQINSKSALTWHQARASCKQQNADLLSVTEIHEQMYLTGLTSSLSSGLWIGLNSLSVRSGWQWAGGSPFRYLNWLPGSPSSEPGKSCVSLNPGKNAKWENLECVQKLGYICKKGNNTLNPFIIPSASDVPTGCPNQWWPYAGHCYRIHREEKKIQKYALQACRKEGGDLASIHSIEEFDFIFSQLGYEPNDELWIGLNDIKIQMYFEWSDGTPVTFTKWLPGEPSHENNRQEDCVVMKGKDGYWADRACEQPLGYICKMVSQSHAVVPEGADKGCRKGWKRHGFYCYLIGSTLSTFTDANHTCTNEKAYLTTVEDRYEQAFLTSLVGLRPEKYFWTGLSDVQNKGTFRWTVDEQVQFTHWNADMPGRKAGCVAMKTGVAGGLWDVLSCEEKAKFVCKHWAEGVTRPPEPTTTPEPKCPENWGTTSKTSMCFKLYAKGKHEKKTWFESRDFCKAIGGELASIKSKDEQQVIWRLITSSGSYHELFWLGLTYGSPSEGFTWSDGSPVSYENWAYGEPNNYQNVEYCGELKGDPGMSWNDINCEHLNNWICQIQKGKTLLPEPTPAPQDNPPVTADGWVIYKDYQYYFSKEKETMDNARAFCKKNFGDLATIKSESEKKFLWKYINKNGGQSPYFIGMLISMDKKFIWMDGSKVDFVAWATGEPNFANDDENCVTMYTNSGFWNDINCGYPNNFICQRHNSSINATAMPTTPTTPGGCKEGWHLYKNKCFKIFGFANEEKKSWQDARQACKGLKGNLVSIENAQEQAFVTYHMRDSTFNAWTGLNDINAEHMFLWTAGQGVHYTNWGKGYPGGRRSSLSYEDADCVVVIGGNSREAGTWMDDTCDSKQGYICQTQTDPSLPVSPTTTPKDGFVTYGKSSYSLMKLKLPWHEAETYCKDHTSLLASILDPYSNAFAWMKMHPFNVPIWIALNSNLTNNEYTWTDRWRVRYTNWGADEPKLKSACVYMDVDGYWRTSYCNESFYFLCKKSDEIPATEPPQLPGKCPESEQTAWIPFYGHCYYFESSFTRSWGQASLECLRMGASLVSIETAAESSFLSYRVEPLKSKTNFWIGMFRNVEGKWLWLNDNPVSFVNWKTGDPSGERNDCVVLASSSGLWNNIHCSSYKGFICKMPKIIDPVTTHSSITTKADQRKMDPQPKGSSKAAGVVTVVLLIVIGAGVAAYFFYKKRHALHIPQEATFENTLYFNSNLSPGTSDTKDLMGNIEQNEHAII

murine CD206 (murine), sequence (Q61830 20-1456): as above

For CSPGAKVRC [UNO], at CD206, the “delivery of nanoparticles to tumors” value is listed as “able to carry drug-loaded nanoparticles targeting CD206 into xenotransplanted tumors”.
The term Kd denotes a measure of binding affinity in units of concentration. With RP-182 (peptide), the dissociation constant Kd amounted to 8 µM in assay [1] and 19 µM with murine CD206 (murine). Also, the thermostability shift of CD206 (CETSA) in assay [2] and in assay [3] was over 4 ° throughout.

The values above are taken from paper PMC7832040 (Science translational medicine, 2020).
